Laboratory results: paper PMC3513293 (PLoS ONE, 2012)

Assays:
[1] = target: T1, p97/Valosin-containing protein (VCP), full length (UniProt P55072 1-806); experiment: SPR; Biacore 3000; p47 immobilised on CM5 by amine coupling; p97/VCP injected, 30 μl/min, 25°C, PBS; Langmuir 1:1 fit; conditions: both partners purified
T1 construct: Homohexamer by gel filtration and DLS; also called p97/VCP; full length p97; source: E. coli Rosetta DE3, purified (nickel IMAC, Superose 6 gel filtration; hexameric 13.5 ml fraction)

[2] = target: the molecule itself; experiment: SEC; Superose 6 10/300 GL in PBS with 5 mM β-mercaptoethanol and 0.005% p20; calibrated with thyroglobulin, ferritin, lactate dehydrogenase and BSA
[3] = target: T1, p97/Valosin-containing protein (VCP), …; experiment: SPR; Biacore 3000; p97/VCP immobilised on CM5 by amine coupling; two-fold dilution series of p47 (from 1.92 μM) or UN (from 1.88 μM) injected at 30 μl/min, 25°C, PBS with 5 mM β-mercaptoethanol and 0.005% p20; no nucleotide; Langmuir 1:1 fit (p47) or Interaction Map Analysis (UN); conditions: both partners purified

T1 sequence (P55072 whole entry): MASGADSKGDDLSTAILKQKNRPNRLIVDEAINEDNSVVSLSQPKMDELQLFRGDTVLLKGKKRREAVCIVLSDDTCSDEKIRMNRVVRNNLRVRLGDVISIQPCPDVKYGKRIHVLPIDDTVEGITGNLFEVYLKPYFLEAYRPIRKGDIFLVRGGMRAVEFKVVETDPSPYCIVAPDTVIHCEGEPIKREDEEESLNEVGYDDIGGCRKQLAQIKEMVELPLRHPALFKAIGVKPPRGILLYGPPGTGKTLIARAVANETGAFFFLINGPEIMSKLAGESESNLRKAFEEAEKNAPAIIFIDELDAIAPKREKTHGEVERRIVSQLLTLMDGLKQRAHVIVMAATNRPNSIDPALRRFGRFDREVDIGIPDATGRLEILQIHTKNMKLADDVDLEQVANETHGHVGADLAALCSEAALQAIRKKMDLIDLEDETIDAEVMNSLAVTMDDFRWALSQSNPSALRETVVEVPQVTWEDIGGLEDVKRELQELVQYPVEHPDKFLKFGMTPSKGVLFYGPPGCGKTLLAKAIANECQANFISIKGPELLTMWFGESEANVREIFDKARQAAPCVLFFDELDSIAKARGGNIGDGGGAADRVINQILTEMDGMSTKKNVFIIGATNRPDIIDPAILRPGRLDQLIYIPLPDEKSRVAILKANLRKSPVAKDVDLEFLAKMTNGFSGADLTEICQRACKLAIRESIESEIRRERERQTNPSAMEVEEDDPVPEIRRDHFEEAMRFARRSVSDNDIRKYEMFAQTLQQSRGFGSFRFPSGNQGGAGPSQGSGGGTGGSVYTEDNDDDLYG

Kd [1]: 31.3 nM
Kd [3]: ~5000 nM
B1: p47 (natural protein, UniProt O35987 1-370, looked up)
chain: MAEERQDALREFVAVTGAEEDRARFFLESAGWDLQIALASFYEDGGDEDIVTISQATPSSVSRGTAPSDNRVTSFRDLIHDQDEEEEEEEGQRFYAGGSERSGQQIVGPPRKKSPNELVDDLFKGAKEHGAVAVERVTKSPGETSKPRPFAGGGYRLGAAPEEESAYVAGERRRHSGQDVHVVLKLWKTGFSLDNGDLRSYQDPSNAQFLESIRRGEVPAELRRLAHGGQVNLDMEDHRDEDFVKPKGAFKAFTGEGQKLGSTAPQVLNTSSPAQQAENEAKASSSILINEAEPTTNIQIRLADGGRLVQKFNHSHRISDIRLFIVDARPAMAATSFVLMTTFPNKELADENQTLKEANLLNAVIVQRLT
notes: p47, adaptor protein of p97/VCP; Homotrimer by gel filtration; the printed list of Addgene numbers (17229,21266,21267,21268) has one number more than the three plasmids named, so 21268 may be p47; source: E. coli Rosetta DE3, purified (nickel IMAC, Superose 6 gel filtration; 16.25 ml fraction)
stoichiometry N [2]: 3
